# Type: biochemical
# Conditions: total turnovers in ART hydroxylation; purified P450, NADPH regeneration system, 12 h
molecule,measurement,value
"wild-type P450BM3: catalytically self-sufficient fatty acid monooxygenase P450BM3 from Bacillus megaterium (protein, UniProt P14779 1-1049, looked up) Bifunctional cytochrome …: MTIKEMPQPKTFGELKNLPLLNTDKPVQALMKIADELGEIFKFEAPGRVTRYLSSQRLIKEACDESRFDKNLSQALKFVRDFAGDGLFTSWTHEKNWKKAHNILLPSFSQQAMKGYHAMMVDIAVQLVQKWERLNADEHIEVPEDMTRLTLDTIGLCGFNYRFNSFYRDQPHPFITSMVRALDEAMNKLQRANPDDPAYDENKRQFQEDIKVMNDLVDKIIADRKASGEQSDDLLTHMLNGKDPETGEPLDDENIRYQIITFLIAGHETTSGLLSFALYFLVKNPHVLQKAAEEAARVLVDPVPSYKQVKQLKYVGMVLNEALRLWPTAPAFSLYAKEDTVLGGEYPLEKGDELMVLIPQLHRDKTIWGDDVEEFRPERFENPSAIPQHAFKPFGNGQRACIGQQFALHEATLVLGMMLKHFDFEDHTNYELDIKETLTLKPEGFVVKAKSKKIPLGGIPSPSTEQSAKKVRKKAENAHNTPLLVLYGSNMGTAEGTARDLADIAMSKGFAPQVATLDSHAGNLPREGAVLIVTASYNGHPPDNAKQFVDWLDQASADEVKGVRYSVFGCGDKNWATTYQKVPAFIDETLAAKGAENIADRGEADASDDFEGTYEEWREHMWSDVAAYFNLDIENSEDNKSTLSLQFVDSAADMPLAKMHGAFSTNVVASKELQQPGSARSTRHLEIELPKEASYQEGDHLGVIPRNYEGIVNRVTARFGLDASQQIRLEAEEEKLAHLPLAKTVSVEELLQYVELQDPVTRTQLRAMAAKTVCPPHKVELEALLEKQAYKEQVLAKRLTMLELLEKYPACEMKFSEFIALLPSIRPRYYSISSSPRVDEKQASITVSVVSGEAWSGYGEYKGIASNYLAELQEGDTITCFISTPQSEFTLPKDPETPLIMVGPGTGVAPFRGFVQARKQLKEQGQSLGEAHLYFGCRSPHEDYLYQEELENAQSEGIITLHTAFSRMPNQPKTYVQHVMEQDGKKLIELLDQGAHFYICGDGSQMAPAVEATLMKSYADVHQVSEADARLWLQQLEEKGRYAKDVWAG",TTN,no ART-oxidation activity
